This experiment concerns the target translocated ALK of ALK-translocated NSCLC tumors (n = 6) (human (endogenous in NSCLC tumors)). In words: proximity ligation; Duolink PLA with mouse HER3 and rabbit ALK antibodies on FFPE sections of ALK-translocated NSCLC tumors (n = 6).

“human epidermal growth factor receptor 3 (from UniProt P21860 20-1342)” gave a mean signal for PLA per cell (signals per cell) of 17.2.

The record behind these values is paper PMC10512822.
